Measurements from paper PMC2572630.

biological target: Flag-tagged mR3-3 c-Myb (chicken) (UniProt P01103); experiment: protein chromatin immunoprecipitation (PChIP); 293T cells fixed with 1% formaldehyde, lysate sonicated to chromatin fragments of 100-300 bp, anti-Flag M2 agarose, washes up to 500 mM NaCl and 500 mM LiCl, histones detected by western blot
Sequence of UniProt P01103 (P01103 other isoform, or with tags, fused parts or gaps): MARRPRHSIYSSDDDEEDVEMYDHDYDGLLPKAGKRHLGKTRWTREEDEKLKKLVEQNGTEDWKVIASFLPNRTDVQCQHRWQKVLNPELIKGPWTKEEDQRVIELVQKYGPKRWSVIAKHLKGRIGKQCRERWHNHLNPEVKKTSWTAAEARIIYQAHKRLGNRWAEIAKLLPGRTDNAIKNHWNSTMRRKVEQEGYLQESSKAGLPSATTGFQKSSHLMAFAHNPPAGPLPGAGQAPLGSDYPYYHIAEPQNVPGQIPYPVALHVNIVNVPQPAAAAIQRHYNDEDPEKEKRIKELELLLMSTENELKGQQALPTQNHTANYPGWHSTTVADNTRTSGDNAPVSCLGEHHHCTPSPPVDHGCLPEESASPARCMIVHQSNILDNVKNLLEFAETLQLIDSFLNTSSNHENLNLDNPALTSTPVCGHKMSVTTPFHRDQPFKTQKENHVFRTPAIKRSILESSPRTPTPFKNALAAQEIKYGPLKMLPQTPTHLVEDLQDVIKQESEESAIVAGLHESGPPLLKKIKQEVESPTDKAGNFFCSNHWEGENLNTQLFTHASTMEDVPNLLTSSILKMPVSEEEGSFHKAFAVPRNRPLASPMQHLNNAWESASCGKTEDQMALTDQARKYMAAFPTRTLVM

Row | Substance | percent decrease in association against wild-type c-Myb [%]
1 | histone H4 (from UniProt P62805 1-103) (natural protein) | 50
2 | histone H3 (from UniProt P68431 1-136) (natural protein) | 50
3 | histone H2A (from UniProt P0C0S8 1-130) (natural protein) | 50
